Laboratory results from IntAct's records for PubMed 31631010.

B1: Palmitoyltransferase ZDHHC5 (Mus musculus), Q8VDZ4 (parent)
chain: MPAESGKRFKPSKYVPVSAAAIFLVGATTLFFAFTCPGLSLNVSPAVPIYNAIMFLFVLANFSMATFMDPGIFPRAEEDEDKEDDFRAPLYKTVEIKGIQVRMKWCATCRFYRPPRCSHCSVCDNCVEEFDHHCPWVNNCIGRRNYRYFFLFLLSLTAHIMGVFGFGLLYVLYHIEELSGVRTAVTMAVMCVAGLFFIPVAGLTGFHVVLVARGRTTNEQVTGKFRGGVNPFTNGCCNNVSRVLCSSPAPRYLGRPKKEKTIVIRPPFLRPEVSDGQITVKIMDNGIQGELRRTKSKGSLEITESQSADAEPPPPPKPDLSRYTGLRTHLSLATNEDSSLLGKDSPPTPTMYKYRPGYSSSSTSAAMPHSSSAKLSRGDSLKEPTSIADSSRHPSYRSEPSLEPESFRSPTFGKSFHFDPLSSGSRSSSLKSAQGTGFELGQLQSIRSEGTTSTSYKSLANQTRNGSLSYDSLLTPSDSPDFESVQAGPEPDPPLGYTSPFLSARLAQQREAERHPRLLPTGPPHREPSPVRYDNLSRHIVASLQEREKLLRQSPPLAGREEEPGLGDSGIQSTPGSGHAPRTSSSSDDSKRSPLSKTPLGRPAVPRFGKPDGLRSRGLGSPEPGTTAPYLGRSISYSSQKAPSGVSETEEVALQPLLTPKDEVQLKTTYSKSNGQPKSIGSASPGPGQPPLSSPTRGGVKKVSGVGGTTYEISV

Variants of: B1
Details: with goga7_human GOLGA7, Q7Z5G4

| Variant | effect of a mutation on the interaction |
| --- | --- |
| C134S | with no effect |
| C236S;C237S;C245S | disrupting interaction strength |
